Measured values published in publication PMC6315749 (Marine Drugs, 2018).

Assays:
[1] = target: Aplysia californica acetylcholine-binding protein (Aplysia californica); experiment: radioligand binding
[2] = target: ligand-binding domain of the human nAChR α9 subunit, de-glycosylated, His-tagged (human) (UniProt Q9UGM1); experiment: […] (20 mM Tris-HCl pH 8.0, 1 mg/mL BSA); […]

“αO-conotoxin GeXIVA, globular isomer (peptide)” was tested, and the IC50 [1] was 2900 nM.
With “α-conotoxin RgIA, ribbon isomer (from UniProt P0C1D0 20-32) (peptide)” the IC50 [1] was 1000 nM.
Work on “αO-conotoxin GeXIVA, beads isomer (peptide)” yielded an IC50 [1] of 2900 nM and an IC50 [2] of 1630 nM.
“α-conotoxin RgIA, globular isomer (from UniProt P0C1D0 20-32) (peptide)” showed an IC50 [1] of 194 nM and an IC50 [2] greater than 60000 nM.
For “αO-conotoxin GeXIVA, ribbon isomer (peptide)”, the IC50 [1] was 2900 nM.
